The values below come from patent US20220305003A1, “METHODS OF TREATING CANCER WITH AN INHIBITOR OF ZNF827” (CHILDREN'S MEDICAL RESEARCH INSTITUTE, priority 2019, published 2022).

For one data set, the system named is U-2 OS cells. The data set can be described thus: Topotecan dose-response of cell proliferation after siRNA transfection (IncuCyte). Format: cell-based. The note with it: topotecan 0.0039-1 μg/mL, 180 hours, compared to scrambled control. As to the method: U-2 OS cells were plated in a 96-well plate at 4000 cells per well. 24 hours following plating, cells were transfected with either scrambled or ZNF827 siRNAs (Table 2) using Lipofectamine RNAiMAX transfection reagent (ThermoFisher Scientific). 24 hours post siRNA transfection, cells were treated with topotecan at a range of concentrations including 0.0039, 0.0078, 0.0156, 0.03125, 0.0625, 0.125, 0.25, 0.5 and 1 μg/mL in triplicates. DMSO was used as untreated control. Immediately after treatment addition, cells were imaged using the IncuCyte® live cell imaging system at 2-hour intervals for 180 hours. Cell proliferation was measured by phase object confluence calculated by the IncuCyte® analysis software. For IC50s, cell proliferation data were analysed in GraphPad Prism 8 to obtain area under curve (AUC), followed by normalisation and non-linear regression using the log(inhibitor) vs. normalised response -variable slope' function.

Another data set concerns the target T1, ZNF827 ZnF4-9 deleted (Homo sapiens).
T1 chain: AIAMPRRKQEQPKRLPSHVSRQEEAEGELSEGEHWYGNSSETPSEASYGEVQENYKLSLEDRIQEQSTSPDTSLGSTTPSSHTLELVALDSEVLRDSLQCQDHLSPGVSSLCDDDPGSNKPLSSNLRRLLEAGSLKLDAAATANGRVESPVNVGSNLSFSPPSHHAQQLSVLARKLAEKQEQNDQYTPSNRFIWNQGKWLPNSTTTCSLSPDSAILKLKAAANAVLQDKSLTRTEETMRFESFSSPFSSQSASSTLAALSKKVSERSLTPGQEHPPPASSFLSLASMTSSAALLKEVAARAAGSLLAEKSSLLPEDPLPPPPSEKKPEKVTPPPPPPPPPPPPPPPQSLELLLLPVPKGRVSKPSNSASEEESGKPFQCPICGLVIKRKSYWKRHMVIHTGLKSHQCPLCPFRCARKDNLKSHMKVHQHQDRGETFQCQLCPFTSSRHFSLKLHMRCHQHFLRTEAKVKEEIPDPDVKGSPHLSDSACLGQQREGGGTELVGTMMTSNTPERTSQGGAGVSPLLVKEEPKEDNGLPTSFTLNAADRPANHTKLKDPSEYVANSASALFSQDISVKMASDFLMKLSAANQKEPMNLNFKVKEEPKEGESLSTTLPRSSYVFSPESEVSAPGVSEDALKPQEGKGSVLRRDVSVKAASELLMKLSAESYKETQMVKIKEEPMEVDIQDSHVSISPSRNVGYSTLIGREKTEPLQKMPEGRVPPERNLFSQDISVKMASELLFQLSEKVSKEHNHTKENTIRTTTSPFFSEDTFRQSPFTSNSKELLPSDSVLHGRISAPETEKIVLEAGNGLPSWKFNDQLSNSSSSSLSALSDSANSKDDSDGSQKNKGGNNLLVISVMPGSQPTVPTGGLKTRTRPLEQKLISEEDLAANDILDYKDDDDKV
The data set can be described thus: EMSA; 0.8 mM ZnCl2, 100 mM KCl, poly(dI:dC), on ice. The conditions noted are these: tags: HaloTag (pHTN), expressed in HEK 293T, tag removed by HaloTEV cleavage; label: 32P (gamma). As to the method: (§1) Purified proteins were quantified using a BCA assay using the Pierce™ BCA Protein Assay Kit according to the manufacturer's instructions. Equal amounts of purified proteins were incubated in binding buffer (20 mM HEPES-KOH, pH7.9, 100 mM KCl, 0.8 mM ZnCl₂, 0.2 mM EDTA, 5% glycerol, 0.5 mM DTT and 0.5 mM PMSF) with 6.25 μg/mL poly (dI:dC) and 50 ng/μL BSA on ice for 20 minutes. ˜0.12 nM (˜2.5 fmol) γ-³²P labelled DNA oligonucleotide (see Table 3) probes were added to samples and incubated on ice for another 30 minutes. Binding reactions were loaded onto an 8% native acrylamide/bisacrylamide (19:1, Biorad) gel pre-run at 100V in 0.5× TB buffer (89 mM Tris, 89 mM boric acid) for 20 minutes. Gels were electrophoresed at 150 V for 150 minutes at 4° C., dried at 65° C. for 45 minutes, and then exposed to a Phosphor screen overnight. Gel images were obtained by scanning the screens with a Typhoon FLA9500 Imager (GE Life Sciences).
Background: In EMSA bound probe runs differently from free probe, usually more slowly.

The next data set deals with T2, ZNF827 full length (Homo sapiens, UniProt Q17R98 SEQ:1-1081).
T2 sequence: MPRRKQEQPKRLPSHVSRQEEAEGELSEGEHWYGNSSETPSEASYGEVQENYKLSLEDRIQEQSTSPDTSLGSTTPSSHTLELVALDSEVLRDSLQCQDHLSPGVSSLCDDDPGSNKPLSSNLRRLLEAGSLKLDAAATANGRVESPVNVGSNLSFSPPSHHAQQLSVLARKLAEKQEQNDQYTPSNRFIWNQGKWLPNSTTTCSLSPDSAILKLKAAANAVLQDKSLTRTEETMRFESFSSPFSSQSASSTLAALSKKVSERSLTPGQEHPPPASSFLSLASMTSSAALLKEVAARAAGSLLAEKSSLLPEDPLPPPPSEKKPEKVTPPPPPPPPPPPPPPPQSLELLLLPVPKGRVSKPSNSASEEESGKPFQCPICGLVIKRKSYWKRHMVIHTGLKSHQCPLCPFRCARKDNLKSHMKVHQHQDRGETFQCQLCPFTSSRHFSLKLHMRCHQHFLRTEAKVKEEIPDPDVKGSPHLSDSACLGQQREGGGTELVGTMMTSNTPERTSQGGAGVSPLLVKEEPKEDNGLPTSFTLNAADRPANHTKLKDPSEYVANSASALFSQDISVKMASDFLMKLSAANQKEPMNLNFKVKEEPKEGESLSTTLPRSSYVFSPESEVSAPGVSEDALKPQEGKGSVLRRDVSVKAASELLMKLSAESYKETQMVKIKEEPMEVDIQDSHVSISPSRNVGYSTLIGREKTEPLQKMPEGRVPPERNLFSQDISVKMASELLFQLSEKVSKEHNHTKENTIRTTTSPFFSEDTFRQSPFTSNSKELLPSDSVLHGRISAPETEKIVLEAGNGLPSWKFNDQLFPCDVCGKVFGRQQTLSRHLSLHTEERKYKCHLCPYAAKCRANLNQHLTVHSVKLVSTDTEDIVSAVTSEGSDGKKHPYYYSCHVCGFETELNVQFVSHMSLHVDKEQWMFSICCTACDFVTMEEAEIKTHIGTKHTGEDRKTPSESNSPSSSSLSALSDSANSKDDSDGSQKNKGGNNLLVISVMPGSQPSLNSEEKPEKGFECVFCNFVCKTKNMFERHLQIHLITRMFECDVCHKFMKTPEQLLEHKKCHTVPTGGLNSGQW
Described as above. The note with it: tags: HaloTag (pHTN), expressed in HEK 293T, tag removed by HaloTEV cleavage; label: 32P (gamma). As to the method:
as §1

As to “siZNF827: Stealth RNAi siRNA ZNF827HSS135819 duplex oligoribonucleotides (Invitrogen), SEQ ID NO: 12 and 13 (chain 1 GGGCAGUCUUCUGGCUGAGAAAUCA; chain 2 UGAUUUCUCAGCCAGAAGACUGCCC; listed as RNA, further chemistry not given here)”, the “sensitivity to topotecan treatment (cell proliferation dose-response)” value with U-2 OS cells is “markedly increased sensitivity to topotecan treatment”.

As to TTAGGGTTAGGGTTAGGG (ssDNA) [ss telomeric G rich oligo], the binding result with ZNF827 ZnF4-9 deleted and with ZNF827 full length was “binds” throughout.
